According to patent US20250011433A1 (GLIKNIK, published 2025):
Like-named read-outs stand apart in the source and are kept apart here.

Columns and labels:
FcγRIIb [1] = molecular target: T1, FcγRIIb (UniProt P31994 46-217, limits assumed); test: BLI (Octet)
T1 sequence (looked up): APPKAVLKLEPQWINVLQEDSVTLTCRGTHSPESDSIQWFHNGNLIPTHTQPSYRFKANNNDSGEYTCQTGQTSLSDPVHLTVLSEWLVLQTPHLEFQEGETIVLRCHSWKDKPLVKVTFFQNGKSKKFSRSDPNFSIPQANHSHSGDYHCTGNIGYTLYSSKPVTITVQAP
Procedure: (§1) Binding of complement-preferential stradomers or parent stradomer G045c to FcγRI, FcγRIIb, FcγRIIIa, FcγRIIa, or FcRn was assessed. RU values of dissociation were measured by biolayer interferometry using a ForteBio Octet instrument. His-tagged receptor proteins were bound to the sensor tip in 1× kinetic analysis buffer from ForteBio after which the on rate of the receptor/protein was measured by transferring the sensor tip to a 1× kinetics buffer containing the purified stradomer of choice. Off rate was measured by transferring the sensor tip to a 1× kinetics buffer, and RU value was calculated from the measured maximum binding using the ForteBio software. Biolayer interferometry detects the binding between a ligand immobilized on the biosensor tip surface and an analyte in solution. When binding occurs it produces an increase in optical thickness at the biosensor tip, which results in a wavelength shift (detected as a response unit of “RU”). The maximum binding level (RU max) is the maximum possible amount of sample binding at equilibrium that saturates the amount of ligand on the sensor surface. The RU 300 is the residual sample binding after 300 seconds of dissociation and is useful to characterize the rate of dissociation of the test article from the test ligand.

FcγRI [2] = molecular target: T2, FcγRI (UniProt P12314 16-288); test: BLI (Octet)
T2 construct: also called CD64
Procedure: as §1

FcγRIIIa = FcγRIIIa (UniProt P08637 17-208); test: BLI (Octet); legend: - indicates no binding
Procedure: as §1

C1q [3] = molecular target: T3, C1q (UniProt P02745 23-245; P02746 28-253; P02747 29-245); test: ELISA on coated C1q
T3 construct: bought C1q coated on ELISA plates at 1 µg/ml; also called complement C1q; complement factor C1q
Procedure: (§2) For C1q binding, 96 well plates were coated with C1q (Sigma Cat #: C1740 1 μg/ml) overnight in PBS. After coating, plates were washed 3 times with standard wash buffer (iX PBS+0.05% Tween 20) and blocked with blocking buffer (1% BSA+1× PBS+0.05% Tween 20) for 2 hours at RT. Following blocking, plates were incubated with compound diluted in blocking buffer 100 μL/well and washed 3 times with standard washing buffer. C1q-bound compound was detected by incubation with 1:5000 biotinylated mouse anti-human IgG1(Cat #555869, BD Biosciences) and Streptavidin-HRP (Cat #: 7100-05 Southern Biotech) (100 μl/well) for 1 hour at room temperature followed by washing 3 times with washing buffer, after which color was developed using the standard TMB method according to manufacturer's protocol for 15 minutes. Absorbance was read at 450 nm.

C1q [4] = molecular target: T3, C1q; test: ELISA on coated C1q; remark: listed apart in the source
Procedure: as §2
(§3) For each stradomer in Tables 5-9, the level of canonical FcγR binding, complement C1q binding, and CDC inhibition were determined according to the methods described in Example 1.

FcγRIIb [5] = molecular target: T1, FcγRIIb; test: BLI (Octet); remark: listed apart in the source
Procedure: as §1, §3

FcγRI [6] = molecular target: T2, FcγRI; test: BLI (Octet); remark: listed apart in the source
Procedure: as §1, §3

C1q [7] = molecular target: T3, C1q; test: ELISA on coated C1q; remark: listed apart in the source
FcγRI [8] = molecular target: T2, FcγRI; test: BLI (Octet); remark: listed apart in the source
C1q [9] = molecular target: T3, C1q; test: ELISA on coated C1q; remark: listed apart in the source

T3 sequence (P02745 23-245 limits assumed, chain 1 of 3): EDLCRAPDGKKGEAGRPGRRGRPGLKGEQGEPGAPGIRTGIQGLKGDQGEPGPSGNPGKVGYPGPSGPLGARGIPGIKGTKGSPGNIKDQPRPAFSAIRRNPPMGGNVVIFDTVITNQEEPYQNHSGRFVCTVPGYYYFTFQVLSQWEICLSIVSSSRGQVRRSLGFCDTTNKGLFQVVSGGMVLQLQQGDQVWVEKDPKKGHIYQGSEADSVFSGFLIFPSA
T3 sequence (P02746 28-253 limits assumed, chain 2 of 3): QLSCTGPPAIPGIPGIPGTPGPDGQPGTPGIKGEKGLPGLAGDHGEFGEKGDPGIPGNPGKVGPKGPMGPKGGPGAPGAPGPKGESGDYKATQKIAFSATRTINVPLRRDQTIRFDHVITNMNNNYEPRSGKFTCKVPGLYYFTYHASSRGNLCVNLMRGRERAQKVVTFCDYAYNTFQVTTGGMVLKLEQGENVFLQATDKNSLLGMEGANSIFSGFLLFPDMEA
T3 sequence (P02747 29-245 limits assumed, chain 3 of 3): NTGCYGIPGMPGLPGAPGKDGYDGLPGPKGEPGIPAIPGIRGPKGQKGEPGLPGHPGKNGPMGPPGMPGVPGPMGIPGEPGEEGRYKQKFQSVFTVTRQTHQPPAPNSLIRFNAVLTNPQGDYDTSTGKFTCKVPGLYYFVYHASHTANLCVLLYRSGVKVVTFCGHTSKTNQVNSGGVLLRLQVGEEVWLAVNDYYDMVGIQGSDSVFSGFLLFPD
T2 sequence (P12314 16-288 limits assumed): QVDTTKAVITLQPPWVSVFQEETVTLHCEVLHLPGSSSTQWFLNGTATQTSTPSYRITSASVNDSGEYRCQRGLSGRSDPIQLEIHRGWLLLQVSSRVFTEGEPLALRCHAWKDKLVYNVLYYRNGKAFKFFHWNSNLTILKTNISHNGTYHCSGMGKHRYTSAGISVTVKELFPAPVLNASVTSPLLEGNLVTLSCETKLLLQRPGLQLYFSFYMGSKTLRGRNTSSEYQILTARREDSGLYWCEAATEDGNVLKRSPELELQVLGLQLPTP
FcγRIIIa, sequence (P08637 17-208 limits assumed): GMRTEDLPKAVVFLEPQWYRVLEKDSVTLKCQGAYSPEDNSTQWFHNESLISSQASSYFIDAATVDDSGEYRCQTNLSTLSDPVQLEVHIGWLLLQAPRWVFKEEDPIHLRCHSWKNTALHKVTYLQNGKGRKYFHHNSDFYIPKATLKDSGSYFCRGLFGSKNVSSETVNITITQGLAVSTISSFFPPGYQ

B1: G1006 (Fc fusion)
chain: EPKSCDKTHTCPPCPAPELLGGPSVFLFPPKPKDTLMISRTPEVTCVVVAVEFEDPEVKFNWYVDGVEVHNAKTKPREEQYNSTYRVVSVLTVLHQDWLNGKEYKCKVTNKALPAPIEKTISKAKGQPREPQVYTLPPSRDELTKNQVSLTCLVKGFYPSDIAVEWESNGQPENNYKTTPPVLDSDGSFFLYSKLTVDKSRWQQGNVFSCSVMHEALHNHYTQKSLSLSPGKERKCCVECPPCP
notes: G045c background, D265A/S267E/H268F/S324T; leader 1-20 cleaved
binding result (FcγRIIb [1]): binds | binding result (FcγRI [2]): binds | binding result (FcγRIIIa): no binding | binding result (C1q [3]): binds

B2: G1043 (Fc fusion)
chain: EPKSCDKTHTCPPCPAPELLGGDSVFLFPPKPKDTLMISRTPEVTCVVVGVEFEDPEVKFNWYVDGVEVHNAKTKPREEQYNSTYRVVSVLTVLHQDWLNGKEYKCKVTNKALPAPIEKTISKAKGQPREPQVYTLPPSREEMTKNQVSLTCLVKGFYPSDIAVEWESNGQPENNYKTTPPVLDSDGSFFLYSKLTVDKSRWQQGNVFSCSVMHEALHNHYTQKSLSLSPGKERKCCVECPPCP
notes: G045c background, P238D/D265G/S267E/H268F/S324T; leader 1-20 cleaved
binding result (FcγRIIb [1]): binds | binding result (FcγRI [2]): binds | binding result (FcγRIIIa): no binding | binding result (C1q [3]): binds

B3: G1042 (Fc fusion)
chain: EPKSCDKTHTCPPCPAPPLLRGPSVFLFPPKPKDTLMISRTPEVTCVVVDVEFEDPEVKFNWYVDGVEVHNAKTKPREEQYNSTYRVVSVLTVLHQDWLNGKEYKCKVTNKAFPAPIEKTISKAKGQPREPQVYTLPPSRDELTKNQVSLTCLVKGFYPSDIAVEWESNGQPENNYKTTPPVLDSDGSFFLYSKLTVDKSRWQQGNVFSCSVMHEALHNHYTQKSLSLSPGKERKCCVECPPCP
notes: G045c background, E233P/G236R/S267E/H268F/S324T/L328F; leader 1-20 cleaved
binding result (FcγRIIb [1]): binds | binding result (FcγRI [2]): binds | binding result (FcγRIIIa): no binding | binding result (C1q [3]): binds

B4: G1046 (Fc fusion)
chain: EPKSCDKTHTCPPCPAPELLGGDSVFLFPPKPKDTLMISRTPEVTCVVVWVEFEDPEVKFNWYVDGVEVHNAKTKPREEQYNSTYRVVSVLTVLHQDWLNGKEYKCKVTNKALPAPIEKTISKAKGQPREPQVYTLPPSREEMTKNQVSLTCLVKGFYPSDIAVEWESNGQPENNYKTTPPVLDSDGSFFLYSKLTVDKSRWQQGNVFSCSVMHEALHNHYTQKSLSLSPGKERKCCVECPPCP
notes: G045c background, P238D/D265W/S267E/H268F/S324T; leader 1-20 cleaved
binding result (FcγRI [2]): binds | binding result (FcγRIIIa): no binding | binding result (C1q [3]): binds

B5: G1071d2 (Fc fusion)
chain: EPKSCDKTHTCPPCPAPELLGGPSVFLFPPKPKDTLMISRTPEVTCVVVDVSFEDPEVKFNWYVDGVEVHNAKTKPREEQYNSAYRVVSVLTVLHQDWLNGKEYKCKVTNKALPAPIEKTISKAKGQPREPQVYTLPPSRDELTKNQVSLTCLVKGFYPSDIAVEWESNGQPENNYKTTPPVLDSDGSFFLYSKLTVDKSRWQQGNVFSCSVMHEALHNHYTQKSLSLSPGKERKCCVECPPCP
notes: G045c background, H268F/S324T/T299A; leader 1-20 cleaved
binding result (C1q [4]): binds | binding result (FcγRIIb [5]): binds | binding result (FcγRI [6]): binds

B6: G1025 (Fc fusion)
chain: EPKSCDKTHTCPPCPAPELLGGDSVFLFPPKPKDTLMISRTPEVTCVVVDVEFEDPEVKFNWYVDGVEVHNAKTKPREEQYNSTYRVVSVLTVLHQDWLNGKEYKCKVTNKALPAPIEKTISKAKGQPREPQVYTLPPSRDELTKNQVSLTCLVKGFYPSDIAVEWESNGQPENNYKTTPPVLDSDGSFFLYSKLTVDKSRWQQGNVFSCSVMHEALHNHYTQKSLSLSPGKERKCCVECPPCP
notes: G045c background, P238D/S267E/H268F/S324T; leader 1-20 cleaved
binding result (FcγRIIb [1]): binds | binding result (FcγRI [2]): binds | binding result (FcγRIIIa): no binding | binding result (C1q [3]): binds

B7: G1044 (Fc fusion)
chain: EPKSCDKTHTCPPCPAPELLGGDSVFLFPPKPKDTLMISRTPEVTCVVVCVEFEDPEVKFNWYVDGVEVHNAKTKPREEQYNSTYRVVSVLTVLHQDWLNGKEYKCKVTNKALPAPIEKTISKAKGQPREPQVYTLPPSRDELTKNQVSLTCLVKGFYPSDIAVEWESNGQPENNYKTTPPVLDSDGSFFLYSKLTVDKSRWQQGNVFSCSVMHEALHNHYTQKSLSLSPGKERKCCVECPPCP
binding result (C1q [7]): no binding | binding result (FcγRI [8]): binds

B8: G1045 (Fc fusion)
chain: EPKSCDKTHTCPPCPAPELLGGDSVFLFPPKPKDTLMISRTPEVTCVVVPVEFEDPEVKFNWYVDGVEVHNAKTKPREEQYNSTYRVVSVLTVLHQDWLNGKEYKCKVTNKALPAPIEKTISKAKGQPREPQVYTLPPSRDELTKNQVSLTCLVKGFYPSDIAVEWESNGQPENNYKTTPPVLDSDGSFFLYSKLTVDKSRWQQGNVFSCSVMHEALHNHYTQKSLSLSPGKERKCCVECPPCP
binding result (C1q [9]): no binding | binding result (FcγRI [8]): binds

B9: G1027 (Fc fusion)
chain: EPKSCDKTHTCPPCPAPELLGGDSVFLFPPKPKDTLMISRTPEVTCVVVDVEFEDPEVKFNWYVDGVEVHNAKTKPREEQYASTYRVVSVLTVLHQDWLNGKEYKCKVTNKALPAPIEKTISKAKGQPREPQVYTLPPSRDELTKNQVSLTCLVKGFYPSDIAVEWESNGQPENNYKTTPPVLDSDGSFFLYSKLTVDKSRWQQGNVFSCSVMHEALHNHYTQKSLSLSPGKERKCCVECPPCP
notes: G045c background, P238D/S267E/H268F/N297A/S324T; leader 1-20 cleaved
binding result (FcγRIIb [1]): binds | binding result (FcγRI [2]): binds | binding result (FcγRIIIa): no binding | binding result (C1q [3]): binds

B10: G1031 (Fc fusion)
chain: EPKSCDKTHTCPPCPAPPLLRGPSVFLFPPKPKDTLMISRTPEVTCVVVAVEFEDPEVKFNWYVDGVEVHNAKTKPREEQYASTYRVVSVLTVLHQDWLNGKEYKCKVTNKALPAPIEKTISKAKGQPREPQVYTLPPSRDELTKNQVSLTCLVKGFYPSDIAVEWESNGQPENNYKTTPPVLDSDGSFFLYSKLTVDKSRWQQGNVFSCSVMHEALHNHYTQKSLSLSPGKERKCCVECPPCP
binding result (C1q [9]): no binding

B11: G1001 (Fc fusion)
chain: ERKCCVECPPCPEPKSCDKTHTCPPCPAPELLGGPSVFLFPPKPKDTLMISRTPEVTCVVVDVEFEDPEVKFNWYVDGVEVHNAKTKPREEQYASTYRVVSVLTVLHQDWLNGKEYKCKVTNKALPAPIEKTISKAKGQPREPQVYTLPPSREEMTKNQVSLTCLVKGFYPSDIAVEWESNGQPENNYKTTPPVLDSDGSFFLYSKLTVDKSRWQQGNVFSCSVMHEALHNHYTQKSLSLSPGK
notes: G019 background, S267E/H268F/S324T/N297A
binding result (C1q [7]): no binding | binding result (FcγRI [8]): binds

B12: G1048 (Fc fusion)
chain: ERKCCVECPPCPEPKSCDKTHTCPPCPAPELLRGPSVFLFPPKPKDTLMISRTPEVTCVVVDVEFEDPEVKFNWYVDGVEVHNAKTKPREEQYNSTYRVVSVLTVLHQDWLNGKEYKCKVTNKAFPAPIEKTISKAKGQPREPQVYTLPPSREEMTKNQVSLTCLVKGFYPSDIAVEWESNGQPENNYKTTPPVLDSDGSFFLYSKLTVDKSRWQQGNVFSCSVMHEALHNHYTQKSLSLSPGK
notes: G019 background, G236R/L328F/S267E/H268F/S324T
binding result (C1q [7]): no binding

B13: G1024 (Fc fusion)
chain: ERKCCVECPPCPEPKSCDKTHTCPPCPAPELLGGDSVFLFPPKPKDTLMISRTPEVTCVVVDVEFEDPEVKFNWYVDGVEVHNAKTKPREEQYNSTYRVVSVLTVLHQDWLNGKEYKCKVTNKALPAPIEKTISKAKGQPREPQVYTLPPSREEMTKNQVSLTCLVKGFYPSDIAVEWESNGQPENNYKTTPPVLDSDGSFFLYSKLTVDKSRWQQGNVFSCSVMHEALHNHYTQKSLSLSPGK
notes: G019 background, P238D/S267E/H268F/S324T
binding result (C1q [9]): no binding
